Measured values as given in paper doi:10.1101/2024.06.14.598999 (bioRxiv, 2024).

Experiments:
[1] = biological target: T1, AP5 ζ/σ5 subcomplex, purified (mouse GST-AP5ζ-Twin-Strep with human AP5σ5) (mouse | human, UniProt Q3U829 1-807; Q9NUS5 1-200); assay: SEC
T1 sequence (looked up) 1: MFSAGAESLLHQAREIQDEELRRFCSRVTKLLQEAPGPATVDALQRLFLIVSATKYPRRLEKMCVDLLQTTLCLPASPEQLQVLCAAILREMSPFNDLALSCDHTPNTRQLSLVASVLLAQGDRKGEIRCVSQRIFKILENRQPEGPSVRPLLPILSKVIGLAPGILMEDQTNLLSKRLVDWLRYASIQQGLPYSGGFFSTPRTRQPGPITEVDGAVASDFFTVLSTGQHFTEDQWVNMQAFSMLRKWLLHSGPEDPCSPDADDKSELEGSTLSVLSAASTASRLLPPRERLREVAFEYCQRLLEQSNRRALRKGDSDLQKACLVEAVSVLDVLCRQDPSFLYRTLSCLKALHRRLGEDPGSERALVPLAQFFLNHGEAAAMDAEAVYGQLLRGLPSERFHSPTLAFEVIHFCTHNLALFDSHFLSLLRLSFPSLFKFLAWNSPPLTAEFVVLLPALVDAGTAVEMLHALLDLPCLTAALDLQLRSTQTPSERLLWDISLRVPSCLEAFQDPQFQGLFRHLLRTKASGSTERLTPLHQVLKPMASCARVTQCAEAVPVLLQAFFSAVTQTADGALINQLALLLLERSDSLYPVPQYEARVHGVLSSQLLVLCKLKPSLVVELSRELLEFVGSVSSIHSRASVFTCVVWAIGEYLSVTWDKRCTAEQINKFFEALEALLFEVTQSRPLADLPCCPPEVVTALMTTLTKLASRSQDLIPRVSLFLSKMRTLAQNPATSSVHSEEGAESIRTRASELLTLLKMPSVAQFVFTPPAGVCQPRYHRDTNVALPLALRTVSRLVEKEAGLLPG
T1 sequence (looked up) 2: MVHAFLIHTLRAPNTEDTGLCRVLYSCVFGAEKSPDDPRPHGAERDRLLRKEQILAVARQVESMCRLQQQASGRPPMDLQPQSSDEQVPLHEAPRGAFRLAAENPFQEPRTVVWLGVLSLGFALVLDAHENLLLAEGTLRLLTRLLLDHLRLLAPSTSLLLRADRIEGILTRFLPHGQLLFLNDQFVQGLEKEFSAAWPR

[2] = biological target: T2, AP5 β5^trunk/µ5 subcomplex, purified (human GST-AP5β5(1-632)-Twin-Strep with mouse AP5μ5) (human | mouse, UniProt Q2VPB7 1-632; Q8BJ63 1-490); assay: SEC
T2 sequence (looked up) 1: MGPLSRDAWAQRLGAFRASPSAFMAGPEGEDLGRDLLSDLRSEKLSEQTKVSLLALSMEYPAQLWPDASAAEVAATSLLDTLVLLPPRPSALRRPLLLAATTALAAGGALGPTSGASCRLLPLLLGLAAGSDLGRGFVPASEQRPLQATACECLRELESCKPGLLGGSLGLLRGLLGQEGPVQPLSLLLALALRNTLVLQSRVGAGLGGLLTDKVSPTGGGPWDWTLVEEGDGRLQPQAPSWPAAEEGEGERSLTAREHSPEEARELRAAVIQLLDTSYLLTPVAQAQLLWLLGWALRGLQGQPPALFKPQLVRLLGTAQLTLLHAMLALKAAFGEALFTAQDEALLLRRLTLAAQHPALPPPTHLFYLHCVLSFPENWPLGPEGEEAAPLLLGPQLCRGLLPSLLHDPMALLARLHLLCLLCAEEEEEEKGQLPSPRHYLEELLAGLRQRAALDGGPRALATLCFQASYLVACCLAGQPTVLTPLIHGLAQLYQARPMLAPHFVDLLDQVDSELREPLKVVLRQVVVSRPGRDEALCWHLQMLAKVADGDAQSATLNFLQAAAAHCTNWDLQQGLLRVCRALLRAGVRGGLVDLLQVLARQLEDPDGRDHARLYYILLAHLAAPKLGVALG
T2 sequence (looked up) 2: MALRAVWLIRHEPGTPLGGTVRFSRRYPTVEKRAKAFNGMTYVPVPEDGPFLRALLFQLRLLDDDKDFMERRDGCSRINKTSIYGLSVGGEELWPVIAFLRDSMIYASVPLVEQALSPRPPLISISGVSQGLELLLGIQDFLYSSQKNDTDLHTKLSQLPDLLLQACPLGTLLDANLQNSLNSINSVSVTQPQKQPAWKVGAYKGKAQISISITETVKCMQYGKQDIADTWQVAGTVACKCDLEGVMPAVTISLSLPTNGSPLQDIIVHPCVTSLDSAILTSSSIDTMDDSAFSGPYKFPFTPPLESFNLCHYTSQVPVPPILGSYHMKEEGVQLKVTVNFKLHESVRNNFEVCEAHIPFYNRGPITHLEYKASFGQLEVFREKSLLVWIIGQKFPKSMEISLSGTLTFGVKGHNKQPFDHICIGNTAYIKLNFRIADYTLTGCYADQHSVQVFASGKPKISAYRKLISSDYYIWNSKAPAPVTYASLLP

B1: SPG11^WD40-hairpin (human SPG11 residues 1-525) as incubated with the AP5 subcomplexes for size exclusion chromatography (domain or fragment, UniProt Q96JI7 1-525, looked up)
chain: MAAEEGVASAASAGGSWGTAAMGRVLPMLLVPVPAEAMGQLGSRAQLRTQPEALGSLTAAGSLQVLSLTPGSRGGGRCCLEGPFWHFLWEDSRNSSTPTEKPKLLALGENYELLIYEFNLKDGRCDATILYSCSREALQKLIDDQDISISLLSLRILSFHNNTSLLFINKCVILHIIFPERDAAIRVLNCFTLPLPAQAVDMIIDTQLCRGILFVLSSLGWIYIFDVVDGTYVAHVDLALHKEDMCNEQQQEPAKISSFTSLKVSQDLDVAVIVSSSNSAVALNLNLYFRQHPGHLLCERILEDLPIQGPKGVDEDDPVNSAYNMKLAKFSFQIDRSWKAQLSSLNETIKNSKLEVSCCAPWFQDILHLESPESGNHSTSVQSWAFIPQDIMHGQYNVLQKDHAKTSDPGRSWKIMHISEQEEPIELKCVSVTGFTALFTWEVERMGYTITLWDLETQGMQCFSLGTKCIPVDSSGDQQLCFVLTENGLSLILFGLTQEEFLNRLMIHGSASTVDTLCHLNGWGR
Q: Does B1 bind [1]?
A: Result: binds

Q: Does B1 bind [2]?
A: Result: binds
